The results in this text go back to the nanobody polyreactivity screen of Harvey et al. (2022).

The series can be described thus: yeast display, Sf9 membrane polyspecificity reagent, FACS + sequencing; frameworks hold sequencing errors. Put shortly:
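Using colony PCR, genes from sorted yeast display clones were amplified, then sequenced on MiSeq at 2 × 250 and filtered by CDR length. The clones had been stained with 10% biotinylated, detergent-solubilized Sf9 membrane reagent for 1 hour at 4 °C and sorted by FACS into low and high (top ~1%) gates on anti-HA and streptavidin fluorescence. Polyreactivity labels come from the gate of origin.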
In the case of “QVQLVESGGGLVQAGGSLRLSCAASGITFARYAMAWYRPAPGKERELVAAISKRGGRTYYADSVKGRFTISRDNAKNTFYLQMNSLKPEDTAVYYCATDYYVSTDYNYWGQGTQVTLSS”, the “polyreactivity (PSR sort gate)” value was “high polyreactivity”. With “QVQLVESGGGLVQAGGSLRLSCAASGITFASNTMGWYRQAPGKERELVAAITRGDNTYYADSVKGRFTISRDNAKNTVYLQMNSLKPEDTSVYYCATEGYQIQYEHDYWGQGTQVTVSS” the entry was “low polyreactivity”; with “QVQLVESGGGLVQAGGSLRLSCAASGITFATNAMGWYRQAPGKERDLVAGITSGGSTYYADSVKGRFTISRDNAKNTVYLQMNSLKPEDTAVYYCAKRYHYWYGTGYDYWGQGTQVTVSS”, “low polyreactivity”; with “QVQLVESGGGLVQAGGSLRLSCAASGITFAYYAMGWYRQAPGKERELVAAIRWSGGDTYYADSVKGRFTISRDNAKNTVYLQMNSLKPEDTAVYYCAADTTWGYDYWGQGTQVTVSS”, “low polyreactivity”. The result for “QVQLVESGGGLVQAGGSLRLSCAASGITFAYYAMGWYRQAPGKERELVAVITSGGRTNYADSVKGRFTISRDNAKNTVYLQMNSLKPEDTAVYYCAAYRSSKTLRLGYYYWGQGTQVTVSS” reads “high polyreactivity”.

For the sequence “QVQLVESGGGLVQAGGSLRLSCAASGITFCYNTMGWYRQAPGKERELVAAISGSGGRTYYADSVKGRFTISRDNAKNTVYLQMNSLKPEDTAVYDCAARWQIWSSLYDYWGQGTQVTVSS”, the “polyreactivity (PSR sort gate)” value is “high polyreactivity”. Turning to “QVQLVESGGGLVQAGGSLRLSCAASGITFDDYAMGWYRQAPGKERELVAAISESGDSTYYADSVKGRFTISRDNAKNTVYFQMNSLKPEDTAVYYCAADSTYYYGWGMYYWGQGTQVTVSS”, the “polyreactivity (PSR sort gate)” value was “high polyreactivity”. The result for “QVQLVESGGGLVQAGGSLRLSCAASGITFDDYDMGWYIQAPGKEREFVAAISFSGSSTYYADSVKGRFTISRDNAKNTVYLQMNSLKPEDTAVYYCAAVTTGTITSKYNYWGQGTQVTVSS” reads “low polyreactivity”; that for “QVQLVESGGGLVQAGGSLRLSCAASGITFDDYDMGWYRQAPGKERELVAAISWSGGSTYYADSVKGRFTISRDNAKTTVYLQMNSLKPEDTAVYYCAAEVIWWVREYYYWGQGTQVTVSS”, “low polyreactivity”. Regarding “QVQLVESGGGLVQAGGSLRLSCAASGITFDGYAMGWNTQAPGKEREFVAAITWNGGSTYYADSVKGRFTISRDNAKNTVYLQMNSLKPEDTAVYYCNADPFTGYDYWGQGTQVTVSS”, the “polyreactivity (PSR sort gate)” value was “low polyreactivity”.

On to “QVQLVESGGGLVQAGGSLRLSCAASGITFDHYAMGWYRQAPGKEREFVAAIDDIGGDTYYADSVKGRFTISRDNAKNTVYLQMNSLKPEDTAVYYCAADYGYYSRFYYWGQGTQVTVSS”, for which the “polyreactivity (PSR sort gate)” value is “low polyreactivity”.

Consider “QVQLVESGGGLVQAGGSLRLSCAASGITFDLYVMGWYRQAPGKERDLVAAINRGTSTYYADSVKGRFTISRDNAKITVYLQMNSLKPEDTAVYYCAADSGGVALYRYDYWGKGTQVTVSS”, for which the “polyreactivity (PSR sort gate)” value is “low polyreactivity”. With “QVQLVESGGGLVQAGGSLRLSCAASGITFDNNAMGWYRQAPGKEREFVADIDGSGGSTYYADSVKGRFTISRDNAKNTVYLQMNSLKPEDTAVYYCNAGYVHSFDYWGQGTQVTVSS” the entry was “low polyreactivity”; with “QVQLVESGGGLVQAGGSLRLSCAASGITFDSYAMGWNRQAPGKERELVAAISYSGGSTYYADSVKGRFTISRDNAKNTVYLQMNSLNPEDTAVYFCAAGSDDDYDYWGQGTQVTVSS”, “low polyreactivity”. “QVQLVESGGGLVQAGGSLRLSCAASGITFDTYAMGCYIQAPGKERELVAAISKSGGSTYYADSVKGRFTISRDNAKNTVYLQMNSLKPEDTAVYYCNARYRNSGRYWDWYYYWGQGTQVTVSS”: the “polyreactivity (PSR sort gate)” value is reported as “high polyreactivity”. Consider “QVQLVESGGGLVQAGGSLRLSCAASGITFDYYAMGWYRQAPGIERELVAAIDDSGGSTYYADSVKGRFTISRDNAKNTVYLQMNSLKPEDTAVYYCAAEFFYYEYDYWGQGTQVTVSS”, for which the “polyreactivity (PSR sort gate)” value is given as “high polyreactivity”. Regarding “QVQLVESGGGLVQAGGSLRLSCAASGITFDYYAMGWYRQAPGKERELVAAIDTGGSTNYADSVKGRFTISRDNAKNTVYLQMNSLKPEDTAVYYCAKDPHGSDFGYWGQGTQVTVSS”, the “polyreactivity (PSR sort gate)” value was “low polyreactivity”. With “QVQLVESGGGLVQAGGSLRLSCAASGITFDYYAMGWYRQAPGKERELVAAISWGGGSTYYADSVKGRFTISRDNAKNTVYLQMNSLKPEDTAVYYCAADIVSSPSSYVPPGDYWGQGTQVTVSS” the entry was “low polyreactivity”.

On to “QVQLVESGGGLVQAGGSLRLSCAASGITFDYYAMGWYRQAPGKERELVAAISWGGGSTYYADSVKGRFTISRDNAKNTVYLQMNSLKQEDTAVYYCAAVIVYSPSSYVRPGDYWGQGTQVTVSS”, for which the “polyreactivity (PSR sort gate)” value is recorded as “low polyreactivity”.

For “QVQLVESGGGLVQAGGSLRLSCAASGITFDYYAMGWYRQAPGKERELVAAISYSGGSTYYADSVKGRFTISRDNAKNTVYLQMNSLKPEDTAVYYCAAETFTISSDYYYWGQGTQVTVSS”, the “polyreactivity (PSR sort gate)” value is “low polyreactivity”.

“QVQLVESGGGLVQAGGSLRLSCAASGITFDYYAMGWYRQAPGKERELVAAITSVGNTYYADSVKGRFTISRDNAKNTVYLQMNSLKPEDTAVYYCNALSFYSLVSFDYWGQGTQVTVSS”: the “polyreactivity (PSR sort gate)” value is reported as “low polyreactivity”.

Regarding “QVQLVESGGGLVQAGGSLRLSCAASGITFDYYAMGWYRQSPGKERELVAAISYSAGSTYYADSVKGRFTISRDNAKNTVYLQMNSLKPEDTAVYYCAAETFTISSDYYYWGQGTQVTVSS”, the “polyreactivity (PSR sort gate)” value was “low polyreactivity”. The result for “QVQLVESGGGLVQAGGSLRLSCAASGITFDYYDMGWYRQAPGKERELVATITSDGSTYYADSVKGRFTISRDNAKNTVYLQMNSLKPEDTAVYYCNARRRTVPYRYDYWGQGTQVTVSS” reads “high polyreactivity”.

In the case of “QVQLVESGGGLVQAGGSLRLSCAASGITFDYYGMGWYRQAPGKERELFASITSGGSTNYADSVKGRFTISRDNAKNTVYLQMNSLKPEDTAVYYCNAEFWEVSPDPRDYDYWGQGTQVTVSS”, the “polyreactivity (PSR sort gate)” value was “low polyreactivity”. Regarding “QVQLVESGGGLVQAGGSLRLSCAASGITFDYYSMGWYRQAPGTERELVAAISWGGGSTYYADSVKGRFTISRDNAKNTVYLQMNSLKPEDTAVYYCAADIVSSPSSYVPPGDYWGQGTQVTVSS”, the “polyreactivity (PSR sort gate)” value is “low polyreactivity”. For the sequence “QVQLVESGGGLVQAGGSLRLSCAASGITFDYYVMGWYRQAPGKERELVAAISWSGGTTYYADSVKGRFTISRDYAKNTVYLQMNSLKPEDTAVYYCNAEHTGSFYGGYPWEMEYWGQGTQVTVSS”, the “polyreactivity (PSR sort gate)” value was “low polyreactivity”. With “QVQLVESGGGLVQAGGSLRLSCAASGITFEANTMGWYRQAPAKERELVAVITDTGSTNYADSVKGRFTISRDNAKNTVYLQMNSLKPEDTAVFYCKADAEPSSGTSAKNDYWGQGTQVSVSS” the entry was “low polyreactivity”.

Consider “QVQLVESGGGLVQAGGSLRLSCAASGITFEGYALGWYRQAPGKERELVAAIRSSGTSTYYADSVKGRFTISRDIAKNTVYLQMNSLKPEDTAVYYCNRARSSSRYDYWGQGTQVTVSS”, for which the “polyreactivity (PSR sort gate)” value is listed as “low polyreactivity”. Regarding “QVQLVESGGGLVQAGGSLRLSCAASGITFEPYDMGWYRQAPGKERELVAAISTTGGRTYYADSVKGRFTISRDNAKNTVYLQMNSLKPEDTAVYYCAARYTTRRRYDYWGQGTQVTVSS”, the “polyreactivity (PSR sort gate)” value is “high polyreactivity”. “QVQLVESGGGLVQAGGSLRLSCAASGITFESNAMGWYRQAPGKEREFVAAISYDGGDTYYADSVKGRFTISRDNAKNTVYLQMNSLKPEDTAVYYCAAEPGWTMDYWGQGTQVTVSS”: the “polyreactivity (PSR sort gate)” value was “low polyreactivity”. With “QVQLVESGGGLVQAGGSLRLSCAASGITFEVYAMGWYRQAPGKERELVAVITSVGSTNYADSVKGRFTISRDNAKNTVYLQMNSLKPEDTAVYYCASEKWTVRRFNPYTYYRYDYWGQGTQVTVSS” the entry was “low polyreactivity”; with “QVQLVESGGGLVQAGGSLRLSCAASGITFFDYAMGWYRQAPGKERELVAAIDLSDGRTYYADSVKGRFTISRDNAKNTVYLQMNSLKPEDTAVYYCARQHEDYGYYWYYWYDYDYWGQGTQVTVSS”, “low polyreactivity”; with “QVQLVESGGGLVQAGGSLRLSCAASGITFFENAMGWYRQAPGKERELVAASSYSGGSTYYADSVKGRFTISRDNAKNTVYLQMYRLKPEDTAVYSCAADWYNFLYIRNRWGYGYWGQGSQVTVSS”, “high polyreactivity”. The result for “QVQLVESGGGLVQAGGSLRLSCAASGITFFFNAMGWYRQAPGKERELVAAITSGAGSTYYADSVKGRFTISRDNAKITVYLQMNSLKPEDTAVYYCASEWSYGGMDYWGQGTQVNVSS” reads “low polyreactivity”; that for “QVQLVESGGGLVQAGGSLRLSCAASGITFFGYAMGWYREAPGKERELVAGISRSTGRTYYADSVKGRFTISRDNAKNTVYLQMNILKPEDTAVYYCAARATRSLSRYMDYWGQGTQVTVSS”, “high polyreactivity”; that for “QVQLVESGGGLVQAGGSLRLSCAASGITFFLYAMGWYRQAPGKERELVAVISASGGSTYYADSVKGRFTISRDNAKNTVYLQMNSLKPEDTAVYYCAAGYRFYGFYALYYWGQGTQVTVSS”, “high polyreactivity”. Consider “QVQLVESGGGLVQAGGSLRLSCAASGITFFPYAMGWYIQAPGKERELVADITWRGGRTYYADSVKGRFTISRDNAKNTVYLQMNSLKPEDTAVYYCAKVARQNWFRYNYDYWGQGTQVTVSS”, for which the “polyreactivity (PSR sort gate)” value is “high polyreactivity”. As for “QVQLVESGGGLVQAGGSLRLSCAASGITFGANAMGWYRQAPGKERELVAHITWSGGDTYYADSVKGRFTISRDNAKNTVYLQMNSLKPEDTAVYYCNALQPGLGSPLGEYDYWGQGTQVTVSS”, the “polyreactivity (PSR sort gate)” value is on record as “low polyreactivity”. The result for “QVQLVESGGGLVQAGGSLRLSCAASGITFGGYAMGWYRKAPGKERELVAAITSSGGITYYADSVKGRFTISRDNAKKTVYLLLNSLKPEDTAVYYCAKVPLEIVTIRDDEDYWGQGTQVTVSS” reads “low polyreactivity”; that for “QVQLVESGGGLVQAGGSLRLSCAASGITFGKYAMGWYRQAPGKERELVAAISWSGGSTYYADSVKGRFTISRDNAKNTVYLQMNSLKPEDTAVYYCAASYPYRRGEFYYYRSSDDDYWGQGTQVTVSS”, “high polyreactivity”; that for “QVQLVESGGGLVQAGGSLRLSCAASGITFGPNAMGWYRQAPGKERELVAAISWRGGSTYYADSVKGRFTISRDNAKNTVYLQMNSLKPEDTAVYYCAKVQIPASYIRYDYWGQGTQVTLSS”, “low polyreactivity”.
